# From the supplement of paper PMC10126150
# ± gives the standard deviation of the averaged measurements.
# Tested on: ATP
# Test: switch fluorescence ratio, 500 uM ATP over buffer (Cy3 cluster intensity, sum of 5 cycles each) (fold (ratio)); higher = stronger signal-on switching upon ATP binding; sequences stand for … in TCGTCGGCAGCGTCAGATGTGTATAAGAGACAGTTTTTTTTTTTTTTTTTTTTTTTTT…TC
# Settings: aptamer strand: ATP DNA aptamer (quencher-CACCTGGGGGAGTATTGCGGAGGAAGG + anchor), 100 nM annealed; ATP concentration: 500 uM
# Outline: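 Values give the fluorescence ratio for each switch-domain sequence, averaged from per-cluster ratios of summed target-cycle to summed buffer-cycle Cy3 intensity. The Cy3-labelled switching-strand clusters sat on a modified Illumina MiSeq flow-cell, were annealed to 100 nM quencher-labelled ATP aptamer, and were imaged in selection buffer, then after 15 min with 500 uM ATP at 22 °C. Five cycles ran with NaOH stripping and re-annealing between them, and clusters outside 100-1000 RFU were excluded.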
# 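Note: ATP exposure 15 min at 22 °C before imaging.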
row,Sequence,switch fluorescence ratio
1,ATCGTTTGTT,1.04 ± 0.062
2,ATTTTAAGGG,1.003 ± 0.0042
3,TTAATAAGTG,0.964 ± 0.028
4,GTTTTGATGG,1 ± 0.019
5,CCAATGACGT,0.979 ± 0.039
6,TAATTTGGAG,1 ± 0.039
7,TTTTTTGGTA,1.01 ± 0.036
8,TATGTGATCT,0.9762 ± 0.0052
9,GCGGGCTTCA,1.01 ± 0.025
10,AGGTACTGTA,1.01 ± 0.011
11,TTGGTGCGGG,0.98 ± 0.044
12,GGGTGGGGGC,1.02 ± 0.037
13,TTTGAAATAT,1.01 ± 0.013
14,ACAGGTAAA,1.02 ± 0.028
15,GGGGATGTTT,0.958 ± 0.039
16,AGGGGGCGCA,0.991 ± 0.051
17,GAAGGGTACG,1.07 ± 0.091
18,ATCAGATTGG,0.989 ± 0.0099
19,TTAAAAATCG,1.02 ± 0.037
20,ATATCAGGGG,1.13 ± 0.017
21,CAATGTAGGT,1.02 ± 0.02
22,TTATCGGGAC,1 ± 0.049
23,ATAAGCGGAG,1 ± 0.013
24,TACCTTGTCT,1.04 ± 0.042
25,GGTGGGGCTG,0.968 ± 0.03

row,Sequence,switch fluorescence ratio
1,AGATAGGGGT,1.021 ± 0.008
2,GGGGTGGGGG,1.01 ± 0.039
3,TTGAGAGGTT,1.02 ± 0.039
4,TTATTTGGAT,0.9897 ± 0.005
5,GGGCTTCAGA,0.987 ± 0.023
6,ATGCGGAGTG,0.987 ± 0.02
7,TTAGGTTGCT,1.1 ± 0.14
8,TAAAGTGATT,0.988 ± 0.025
9,GTTGAAACGT,1.06 ± 0.023
10,TAAGCGAGTG,0.9832 ± 0.0032
11,TGTGATTTAA,1.002 ± 0.0028
12,TCGGAAGGGT,0.9933 ± 0.0075
13,GATCGTATGT,0.9838 ± 0.0013
14,TTCTCGGACG,0.991 ± 0.017
15,AAAAGGTTAG,1.0185 ± 0.00083
16,GGGTTAGGGC,0.988 ± 0.023
17,ACCAATCCTG,1 ± 0.013
18,AAGTTGTTCT,0.997 ± 0.014
19,GTAGGGTAAG,0.988 ± 0.039
20,CACCCTTTTC,1.02 ± 0.024
21,TTTTCGGAGT,1.01 ± 0.037
22,TTGCGCTACG,1.01 ± 0.011
23,TTGTTCCCGT,0.9839 ± 0.0013
24,CACTGCTTTT,0.992 ± 0.023
25,CGTCATTTAT,1 ± 0.06

row,Sequence,switch fluorescence ratio
1,TTATTTTTA,0.9699 ± 0.0017
2,TTTCTTATTC,0.983 ± 0.022
3,GTAGTATGAG,0.999 ± 0.014
4,TTTGCCGAGG,1.01 ± 0.015
5,CAGCAAAAAG,0.985 ± 0.025
6,TGATTACTGG,1.027 ± 0.01
7,TTAAGGCCAC,1.034 ± 0.0055
8,TAGTTTTTGT,1.01 ± 0.049
9,ATGGGGCCAA,1.03 ± 0.031
10,CCAAGTGTGC,1.26 ± 0.17
11,TATATAAGAT,1 ± 0.058
12,ATTGATTCTT,1.01 ± 0.051
13,ATGGTCCATG,0.995 ± 0.022
14,ATATCATGGG,0.982 ± 0.017
15,TGAGAGTAGG,0.9839 ± 0.0072
16,CTGATTCGGT,0.9889 ± 0.0027
17,TCAAAGGTGT,1.22 ± 0.14
18,CACTAGAACC,1.0319 ± 8.9e-05
19,TAATGTTCTT,1 ± 0.033
20,ATGGGACGAT,0.995 ± 0.026
21,GGGCCTTTTC,1 ± 0.056
22,TATTGGGTGT,1.034 ± 0.0014
23,AATTATACCC,1.03 ± 0.029
24,GATCTGGTTT,0.998 ± 0.056
25,ACCGCACCAA,1.34 ± 0.051

row,Sequence,switch fluorescence ratio
1,TGAGAGGAAG,0.989 ± 0.018
2,AATAAGAATA,1 ± 0.037
3,CGGAAGTTGG,0.996 ± 0.02
4,AGTGACACCT,1.15 ± 0.054
5,TTCTTCCTTT,1.028 ± 0.0051
6,CTAGTATATT,0.993 ± 0.025
7,GACGTCGGGA,1.012 ± 0.0021
8,ATTTGTCCGT,1.03 ± 0.018
9,AAGTCTACG,1.04 ± 0.03
10,AGGGTTGGGC,1.01 ± 0.021
11,GAAGAAGTAA,1.03 ± 0.013
12,GACGGGGCCC,1 ± 0.013
13,GACCTTTGTT,1.01 ± 0.022
14,CACCTAATGT,1.06 ± 0.015
15,GGGGGTATCC,1.03 ± 0.054
16,TTACTTTGGC,1 ± 0.022
17,CGGTTTCAAG,0.972 ± 0.042
18,TTGATTATAT,1.02 ± 0.012
19,GGGGAGCATT,1.04 ± 0.013
20,GGCAAATGGG,1.02 ± 0.012
21,AAAAAATGCT,1.01 ± 0.014
22,GGACTTGGGC,0.986 ± 0.036
23,TCTTGATTAT,0.9795 ± 0.0085
24,AGTGCGTTTA,1 ± 0.014
25,GTTGATTAGC,0.981 ± 0.077

row,Sequence,switch fluorescence ratio
1,ACGGGGAGGC,1.07 ± 0.028
2,TATTGGGAAA,1.06 ± 0.045
3,GGGTCAAGTC,0.968 ± 0.04
4,TTACTTGCAT,1.065 ± 0.0059
5,TTTTGCCCCC,1.12 ± 0.14
6,GGGCCCAGCT,1.02 ± 0.031
7,AATTGATTGG,0.983 ± 0.032
8,CCTATATACG,1.13 ± 0.042
9,CTCTTGGAGA,1.01 ± 0.026
10,AAGTTTGCAT,0.978 ± 0.021
11,AAGACGGGCT,1.01 ± 0.037
12,AACGATCTTT,0.9979 ± 0.0084
13,TCATGACTTT,1.012 ± 0.0038
14,CCTAGTTAGT,1.02 ± 0.034
15,AAAGTCCTA,0.982 ± 0.015
16,GCTGGGTTGC,1.01 ± 0.024
17,TTTAATTGCA,0.988 ± 0.038
18,GGGCAATCTT,1.119 ± 0.0083
19,CGTGATTCGC,1.018 ± 0.0023
20,GATCAATTAA,0.9942 ± 0.007
21,CTAGGCCTGG,1.013 ± 0.0081
22,TTTATATGGC,1.03 ± 0.08
23,AAACACTGGG,0.9638 ± 0.0073
24,AACTGGGAGA,0.98933 ± 0.0002
25,CGCGGGGAGC,1.07 ± 0.088

row,Sequence,switch fluorescence ratio
1,TTTTTAATCG,1.01 ± 0.032
2,GGGGTTAGTC,1.02 ± 0.0085
3,GTTTTAGTTT,0.987 ± 0.037
4,AATGATAGTA,1.006 ± 0.0034
5,TATTTGTAGT,1.01 ± 0.039
6,GCTTTTGGGG,1.03 ± 0.087
7,AGTTTTATTT,0.968 ± 0.032
8,GTGTGCGGGG,1.06 ± 0.079
9,TGGGCAACCG,1.02 ± 0.065
10,AGCTGATTGC,1 ± 0.02
11,CGTCGATAAT,1.03 ± 0.035
12,CGGGGATACG,1.01 ± 0.048
13,CCCATTGTTT,1.01 ± 0.022
14,TGTGTGAGT,0.964 ± 0.013
15,TGATTCAGGT,1 ± 0.024
16,TATATGGAAG,0.984 ± 0.03
17,TGGGGAGAGG,1.02 ± 0.037
18,GTGAGTGTAT,0.9682 ± 0.0092
19,CAGGGCGGAA,1.02 ± 0.019
20,TCTGGGGAAT,1 ± 0.035
21,CGGTCCTTGG,0.99 ± 0.014
22,TTCTAAAAAT,1.06 ± 0.023
23,TATTGGGCAG,1.01 ± 0.023
24,GTTTTGTTAT,1.01 ± 0.018
25,TTTAGAAGGC,1.08 ± 0.11

row,Sequence,switch fluorescence ratio
1,CTTGGAAATA,1.02 ± 0.013
2,CCTTCCTACG,2.36 ± 0.54
3,TCTGTTAATT,1.01 ± 0.014
4,CTATACGGTT,0.983 ± 0.03
5,GGTGGAGCGG,1 ± 0.047
6,CGGCTGGTAC,1.86 ± 0.027
7,AGGCCGGGTG,1.35 ± 0.052
8,CGTGTGGGGA,1.02 ± 0.045
9,CCACACGTTT,1.13 ± 0.076
10,CAGGTGGGGC,1.02 ± 0.035
11,GGTAAACAGG,1.04 ± 0.031
12,AGAAGCCCCT,0.992 ± 0.031
13,GATATAGCTC,0.999 ± 0.038
14,AAAACGAGTC,1.07 ± 0.031
15,TAAAGCATGG,0.98 ± 0.019
16,TCCTGGCTGT,1.09 ± 0.027
17,AAGTTCTTTA,1.02 ± 0.022
18,GTTTTATGAG,0.959 ± 0.014
19,CTCCATGGTT,1.06 ± 0.024
20,CATAAGGTAT,0.999 ± 0.046
21,ATATTTTAAC,1 ± 0.012
22,TTAAATGTTT,0.994 ± 0.015
23,TTTTACAGAT,0.975 ± 0.017
24,TCGAGCAGTG,1.06 ± 0.013
25,ATTTGGGAGA,0.978 ± 0.042

row,Sequence,switch fluorescence ratio
1,GATATCTCCT,1.09 ± 0.011
2,CTTCATAGGG,0.968 ± 0.024
3,TTTTGTTTGA,0.995 ± 0.01
4,CAATGGGGGC,1.02 ± 0.045
5,TTTATCCCGA,1.03 ± 0.048
6,GCAGTTAATC,1.05 ± 0.026
7,TTAAAGATTT,1.07 ± 0.098
8,TAGGGGGGTA,0.982 ± 0.035
9,CTCAAAAGTT,1.01 ± 0.026
10,TTGACGATTT,1.05 ± 0.063
11,AATTTTTAGA,0.987 ± 0.034
12,GGGTACGGAA,1.106 ± 0.01
13,GGGAAATGGT,1.01 ± 0.027
14,CTCGGTGTGG,1 ± 0.033
15,TTATTGGTGT,1.01 ± 0.024
16,ATTTTGGTGA,1 ± 0.035
17,CAGTATTTCC,1.05 ± 0.043
18,CGTTTTTATT,1.01 ± 0.015
19,TTTAAGGCTC,0.994 ± 0.032
20,GCGTTGGGGG,0.995 ± 0.037
21,TTTAGGGGGG,1.01 ± 0.099
22,TTCACTAGTG,1.02 ± 0.035
23,ATGAATAGAG,1.02 ± 0.031
24,GAGGAGTGAA,0.9973 ± 0.0067
25,GTTGGAGGGA,1.01 ± 0.032
